Results on 22 molecules are retold here after US20200216495A1 (ADRX, published 2020).

Square brackets hold non-standard residues; d marks the D form. Ends that are not written are not given here.

The test concerns the target Ac-VQIINK-NH2 (SEQ ID NO: 23) (N-terminal acetyl (Ac); C-terminal amide (NH2)). Description: cell-based or functional assay.
Regarding [dW][dF][dK][dI][dK][dL][dE][dL] [wfkiklel], the “VQIINK Inhibition IC50” value turned out to be 1.74 µm.

[dL][dK][dI][dR][dI][dE][dH][dY] [lkiriehy]: the “VQIINK Inhibition IC50” value was determined as 1.57 µm. The same measure for [dL][dA][dI][dR][dI][dH][dY] [lairihy]: 1.71 µm; for [dF][dH][dL][dE][dI][dR][dH][dW] [fhleirhw]: 1.79 µm; for [dF][dE][dI][dR][dL][dH][dH][dW] [feirlhhw]: 1.78 µm. To [dW][dR][dL][dW][dI][dH][dW] [wrlwihw] belongs 1.73 µm; to [dW][dR][dF][dK][dV][dR][dW] [wrfkvrw], 1.66 µm; to [dM][dR][dL][dR][dI][dH][dW] [mrlrihw], 1.58 µm. The same measure for [dF][dK][dI][dK][dL][dK][dW] [fkiklkw]: 1.55 µm. As for [dW][dW][dR][dV][dK][dL][dR][dW] [wwrvklrw], the “VQIINK Inhibition IC50” value turned out to be 1.57 µm. To [dL][dD][dL][dR][dF][dK][dL][dY] [ldlrfkly] belongs 1.55 µm; to [dW][dR][dI][dR][dI][dR][dW] [wririrw], 1.73 µm; to [dW][dK][dL][dW][dL][dR][dW][dW] [wklwlrww], 1.58 µm. To [dW][dR][dL][dR][dI][dW][dW][dW] [wrlriwww] belongs 1.75 µm; to [dH][dR][dL][dK][dV][dR][dW][dW] [hrlkvrww], 1.77 µm. To [dF][dE][dL][dR][dL][dH][dW][dH] [felrlhwh] belongs 1.57 µm. For [dF][dK][dI][dH][dI][dK][dH][dY] [fkihikhy], the “VQIINK Inhibition IC50” value came to 1.77 µm. Turning to [dW][dR][dL][dK][dV][dR][dW][dR] [wrlkvrwr], the “VQIINK Inhibition IC50” value was determined as 1.7 µm. On to [dF][dW][dL][dK][dL][dR][dW][dF] [fwlklrwf], for which the “VQIINK Inhibition IC50” value is 1.63 µm. Take [dW][dK][dL][dK][dL][dR][dW][dW] [wklklrww]: the “VQIINK Inhibition IC50” value is 1.76 µm.

For the molecule [dL][dK][dL][dE][dI][dR][dW][dH] [lkleirwh], the “VQIINK Inhibition IC50” value came out at 1.76 µm. To [dL][dK][dI][dR][dI][dH][dE][dH] [lkiriheh] belongs 1.75 µm.
